This note sets out measurements from patent publication US20050238685A1 (published 2005).

The target in experiment [1] is T1, bovine pancreas trypsin (bovine, UniProt P00760 24-246).
T1 construct: Bought enzyme; also called 25 kD trypsin (bovine pancreas)
In words: enzyme on hydrophobin-coated sheets, washed; chromogenic assay.

In experiment [2] the target is BSA (bovine serum albumin) (bovine, UniProt P02769 25-607). In words: protein on hydrophobin-coated TEFLON sheets, rinsed; TFA extraction and SDS-PAGE.
BSA (bovine serum albumin), sequence (P02769 25-607 limits assumed): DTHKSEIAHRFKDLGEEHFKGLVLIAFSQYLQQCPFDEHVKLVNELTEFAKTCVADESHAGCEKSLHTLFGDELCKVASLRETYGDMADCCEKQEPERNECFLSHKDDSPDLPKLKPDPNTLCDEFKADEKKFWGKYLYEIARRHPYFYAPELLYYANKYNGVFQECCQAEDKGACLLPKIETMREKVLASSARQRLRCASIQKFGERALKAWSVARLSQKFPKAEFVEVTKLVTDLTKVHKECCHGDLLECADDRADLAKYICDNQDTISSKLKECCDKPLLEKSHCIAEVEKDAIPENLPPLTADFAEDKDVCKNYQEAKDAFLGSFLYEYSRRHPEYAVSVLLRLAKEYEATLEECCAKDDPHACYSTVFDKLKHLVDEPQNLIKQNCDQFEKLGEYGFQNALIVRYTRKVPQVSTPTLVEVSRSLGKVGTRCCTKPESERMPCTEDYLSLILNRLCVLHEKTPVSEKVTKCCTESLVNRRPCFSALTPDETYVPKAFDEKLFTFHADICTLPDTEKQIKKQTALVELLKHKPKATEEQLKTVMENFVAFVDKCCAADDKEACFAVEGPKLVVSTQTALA
Source text: BSA (bovine serum albumin) and fibronectin were immobilized on coated TEFLON™ sheets. […] The sheets were removed from the hydrophobin solution and were immediately washed with large amounts of water to remove any unbound hydrophobin. […] The presence of BSA or fibronectin on bare and coated TEFLON™ was detected extracting all protein with TFA, evaporating the TFA and loading the sample on SDS-PAGE and staining according to standard procedures.
In experiment [3] the target is T1, bovine pancreas trypsin. As to the kind of experiment: enzyme on SC3-coated TEFLON, rinsed; activity by spectrophotometry, constant after removal of the surface.
Procedure: The surface was first coated with SC3 hydrophobin by immersion in the protein aqueous solution (0.3 mg/mL) during approximately 30 minutes. The obtained modified surface was then immersed in an aqueous enzyme solution during approximately 30 minutes. After each step, the TEFLON™ surface was rinsed with an adequate buffer solution. […] The functionalized TEFLON® was stored at 4° C. in an Eppendorf tube containing a buffer solution.

T1 sequence (P00760 24-246): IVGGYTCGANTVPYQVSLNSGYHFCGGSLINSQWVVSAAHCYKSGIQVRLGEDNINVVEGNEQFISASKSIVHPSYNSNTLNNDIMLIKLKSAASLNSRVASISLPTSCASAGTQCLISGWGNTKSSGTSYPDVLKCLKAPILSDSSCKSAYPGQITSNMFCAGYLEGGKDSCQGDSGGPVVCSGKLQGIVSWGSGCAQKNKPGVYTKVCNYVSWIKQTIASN

B1: SC4 hydrophobin of Schizophyllum commune (other)
chain: AGQACNSGPVQCCNETTTVANAQKQGLLGGLLGVVVGPITGLVGLNCSPISVVGVLTGNSCTAQTVCCDHVTQNGLVNVGCTPISL
B1: the binding result in experiment [1] is given as “binds”.

B2: SC3 hydrophobin of Schizophyllum commune (other, UniProt P16933 25-136, looked up)
chain: GGHPGTTTPPVTTTVTVTTPPSTTTIAAGGTCTTGSLSCCNQVQSASSSPVTALLGLLGIVLSDLNVLVGISCSPLTVIGVGGSGCSAQTVCCENTQFNGLINIGCTPINIL
notes: Used as a self-assembled film (alpha-helix state or beta-sheet state) coated on TEFLON, polyethylene, glass, microtiter wells or oil droplets; Natural SC3 is glycosylated (mannose) at its N-terminal side; also called hydrophobin SC3
With B2, the binding result in experiment [2] and in experiment [3] was “binds” throughout.
